Measurements from patent US20240376186A1 (AARHUS UNIVERSITET, published 2024).

What was measured:
[1] = target: T1, native C3 (human, UniProt P01024 23-667; P01024 668-1663); assay: size exclusion chromatography
T1 construct: also called Complement component 3
Method: (§1) Size exclusion chromatography assay. 200 μg C3b was mixed with a 2-fold molar excess of EWE-hC3Nb1 or left untreated. The mix was diluted to 400 μL in 20 mM HEPES pH 7.5, 150 mM NaCl and applied to a Superdex 200 increase (GE Healthcare) column equilibrated in dilution buffer. SEC assaying binding of EWE-hC3Nb1 to native C3 was performed similarly. Peak fraction were analyzed by SDS PAGE.

[2] = target: T2, C3b (human, UniProt P01024 23-667; P01024 749-1663); assay: size exclusion chromatography, 2-fold molar excess of EWE-hC3Nb1; SDS-PAGE of peak fractions confirmed the complex
T2 construct: also called human C3b
Method: as §1

[3] = target: T2, C3b; assay: bio-layer interferometry, summary of affinities (FIG. 10)
Method: FIGS. 9A-9B Bio-layer interferometry-based analysis of EWEnH. (FIG. 9A) Anti-penta his biosensors were coated with EWEnH. The sensors were transferred into a dilution series from 3.125-100 nM C3b. (FIG. 9B) Anti-penta his biosensors were coated with EWEnH. The iC3b concentration tested ranged from 6.25-100 nM.
(§2) Bio-layer interferometry experiments. All experiments were performed in 20 mM HEPES pH 7.5, […]. All experiments were performed on an Octet RED96 (Fortébio Pall Corporation) instrument operating at 30° C., shaking at 1000 rpm. EWE-hC3Nb1, EWEμH or EWEnH was immobilized on anti-penta his biosensor (Fortebio Pall Corporation) and the sensors were transferred into dilution series of C3b or iC3b. Measurements of 0 nM analyte were subtracted from sensorgrams for normalization and the sensorgrams were fitted to a 1:1 binding model using the GraphPad Prism (version 6.01) software.

[4] = target: T2, C3b; assay: bio-layer interferometry, binder on anti-penta his biosensors; reference EWE-hC3Nb1 on C3b
Method: FIGS. 8A-8B Bio-layer interferometry-based analysis of EWEμH. (FIG. 8A) Anti-penta his biosensors were coated with EWEμH. The sensors were transferred into a dilution series from 1.5625-50 nM C3b. (FIG. 8B) Anti-penta his biosensors were coated with EWEμH and transferred into an iC3b dilution series ranging from 3.125-50 nM.
as §2

T2 sequence (P01024 23-667 limits assumed, chain 1 of 2): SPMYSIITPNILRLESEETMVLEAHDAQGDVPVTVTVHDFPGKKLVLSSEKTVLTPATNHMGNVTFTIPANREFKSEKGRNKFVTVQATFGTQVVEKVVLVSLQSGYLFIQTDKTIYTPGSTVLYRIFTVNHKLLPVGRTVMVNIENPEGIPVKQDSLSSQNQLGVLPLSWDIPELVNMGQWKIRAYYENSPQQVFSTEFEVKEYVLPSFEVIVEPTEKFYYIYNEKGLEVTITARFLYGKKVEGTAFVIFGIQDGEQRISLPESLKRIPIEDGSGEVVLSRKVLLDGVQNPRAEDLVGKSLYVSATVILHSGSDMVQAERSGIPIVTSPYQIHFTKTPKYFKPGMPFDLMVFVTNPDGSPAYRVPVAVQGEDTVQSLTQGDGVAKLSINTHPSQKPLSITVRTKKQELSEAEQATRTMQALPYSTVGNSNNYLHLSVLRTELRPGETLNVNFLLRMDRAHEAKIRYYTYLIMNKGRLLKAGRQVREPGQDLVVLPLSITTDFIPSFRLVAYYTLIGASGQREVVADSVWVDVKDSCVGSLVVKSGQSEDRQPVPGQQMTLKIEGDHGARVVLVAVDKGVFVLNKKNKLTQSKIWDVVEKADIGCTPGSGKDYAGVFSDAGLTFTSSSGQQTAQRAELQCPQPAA
T2 sequence (P01024 749-1663 limits assumed, chain 2 of 2): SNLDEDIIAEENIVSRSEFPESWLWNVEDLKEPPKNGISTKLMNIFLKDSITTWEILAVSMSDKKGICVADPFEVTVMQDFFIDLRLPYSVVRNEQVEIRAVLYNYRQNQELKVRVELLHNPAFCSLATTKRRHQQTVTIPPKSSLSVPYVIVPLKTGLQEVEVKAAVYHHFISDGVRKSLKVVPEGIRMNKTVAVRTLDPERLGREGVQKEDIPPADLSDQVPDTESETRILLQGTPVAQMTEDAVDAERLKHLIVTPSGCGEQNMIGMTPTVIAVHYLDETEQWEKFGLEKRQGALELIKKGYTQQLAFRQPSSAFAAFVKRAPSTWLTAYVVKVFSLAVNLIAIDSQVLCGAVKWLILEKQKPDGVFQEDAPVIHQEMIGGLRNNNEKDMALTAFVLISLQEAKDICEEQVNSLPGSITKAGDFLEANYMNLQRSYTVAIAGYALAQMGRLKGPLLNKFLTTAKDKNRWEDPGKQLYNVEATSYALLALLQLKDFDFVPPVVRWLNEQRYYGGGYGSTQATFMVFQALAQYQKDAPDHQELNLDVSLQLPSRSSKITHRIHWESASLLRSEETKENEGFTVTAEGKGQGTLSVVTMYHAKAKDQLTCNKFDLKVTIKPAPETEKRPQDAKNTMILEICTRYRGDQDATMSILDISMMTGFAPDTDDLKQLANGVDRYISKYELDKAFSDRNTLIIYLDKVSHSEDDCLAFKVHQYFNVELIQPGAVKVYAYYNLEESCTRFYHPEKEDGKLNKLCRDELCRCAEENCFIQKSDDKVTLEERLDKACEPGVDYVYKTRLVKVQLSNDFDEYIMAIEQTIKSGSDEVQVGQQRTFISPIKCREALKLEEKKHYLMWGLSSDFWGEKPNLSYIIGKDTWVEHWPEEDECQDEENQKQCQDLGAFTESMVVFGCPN
T1 sequence (P01024 23-667, chain 1 of 2): as the sequence (P01024 23-667 limits assumed, chain 1 of 2) above
T1 sequence (P01024 668-1663, chain 2 of 2): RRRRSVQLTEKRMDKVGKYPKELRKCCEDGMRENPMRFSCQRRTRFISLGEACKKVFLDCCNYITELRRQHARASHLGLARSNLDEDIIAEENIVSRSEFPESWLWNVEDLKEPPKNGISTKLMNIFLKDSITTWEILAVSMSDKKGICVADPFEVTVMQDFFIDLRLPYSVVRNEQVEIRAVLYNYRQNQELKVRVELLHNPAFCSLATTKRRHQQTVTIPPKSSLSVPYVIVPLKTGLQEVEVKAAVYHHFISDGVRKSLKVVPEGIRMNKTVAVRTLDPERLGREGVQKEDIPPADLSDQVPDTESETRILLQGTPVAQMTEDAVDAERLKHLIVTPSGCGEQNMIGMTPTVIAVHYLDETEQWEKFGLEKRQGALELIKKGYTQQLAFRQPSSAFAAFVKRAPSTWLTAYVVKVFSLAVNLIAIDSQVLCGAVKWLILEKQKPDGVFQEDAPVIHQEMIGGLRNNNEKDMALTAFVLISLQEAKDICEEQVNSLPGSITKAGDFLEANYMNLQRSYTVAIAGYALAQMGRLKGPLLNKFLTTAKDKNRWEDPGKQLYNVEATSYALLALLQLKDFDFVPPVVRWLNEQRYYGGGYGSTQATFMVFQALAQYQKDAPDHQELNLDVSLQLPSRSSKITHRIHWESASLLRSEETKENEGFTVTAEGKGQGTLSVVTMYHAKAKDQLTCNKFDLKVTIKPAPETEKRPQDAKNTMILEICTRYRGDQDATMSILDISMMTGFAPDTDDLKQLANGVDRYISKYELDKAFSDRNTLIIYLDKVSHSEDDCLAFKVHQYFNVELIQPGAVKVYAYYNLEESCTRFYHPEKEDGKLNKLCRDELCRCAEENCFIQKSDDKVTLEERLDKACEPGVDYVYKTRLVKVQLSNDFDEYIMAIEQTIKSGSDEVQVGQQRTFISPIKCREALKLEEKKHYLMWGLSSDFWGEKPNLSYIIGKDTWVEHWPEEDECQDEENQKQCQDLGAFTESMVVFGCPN

B1: EWE-hC3Nb1 (VHH)
VHH: QVQLVETGGGLVQAGGSLRLSCAASGSIFSINAMGWFRQAPGKEREFVATINRSGGRTYYADSVKGRFTISRDNGKNMVYLQMHSLKPEDTAIYYCAAGTGWSPQTDNEYNYWGQGTQVTVSS
notes: hC3Nb1 with an N-terminal Glu-Trp-Glu motif; expressed in E. coli; also called single domain antibody EWE-hC3Nb1; EWE-hC3Nb1 nanobody; not shown: His tag implied by HisTrap purification and capture on anti-penta his biosensors
[1]
  binding result: no binding (tested: 2-fold molar excess of EWE-hC3Nb1)
[2]
  binding result: binds

B2: EWEnH (other)
chain: EWEQVQLVETGGGLVQAGGSLRLSCAASGSIFSINAMGWFRQAPGKEREFVATINRSGGRTYYADSVKGRFTISRDNGKNMVYLQMHSLKPEDTAIYYCAAGTGWSPQTDNEYNYWGQGTQVTVSSGGGGSGGGGSGGGGSGGGGSRPCGHPGDTPFGTFTLTGGNVFEYGVKAVYTCNEGYQLLGEINYRECDTDGWTNDIPICEVVKCLPVTAPENGKIVSSAMEPDREYHFGQAVRFVCNSGYKIEGDEEMHCSDDGFWSKEKPKCVEISCKSPDVINGSPISQKIIYKENERFQYKCNMGYEYSERGDAVCTESGWRPLPSCEEA
notes: expressed in HEK293 cells; also called fusion protein EWEnH; not shown: His tag implied by HisTrap purification and capture on anti-penta his biosensors
[3]
  binding result: binds

B3: EWEµH (other)
chain: EWEQVQLVETGGGLVQAGGSLRLSCAASGSIFSINAMGWFRQAPGKEREFVATINRSGGRTYYADSVKGRFTISRDNGKNMVYLQMHSLKPEDTAIYYCAAGTGWSPQTDNEYNYWGQGTQVTVSSGGGGSGGGGSGGGGSGGGGSRPCGHPGDTPFGTFTLTGGNVFEYGVKAVYTCNEGYQLLGEINYRECDTDGWTNDIPICEVVKCLPVTAPENGKIVSSAMEPDREYHFGQAVRFVCNSGYKIEGDEEMHCSDDGFWSKEKPKCVEISCKSPDVINGSPISQKIIYKENERFQYKCNMGYEYSERGDAVCTESGWRPLPSCEEAGGGGGGGGGGGGGKCGPPPPIDNGDITSFPLSVYAPASSVEYQCQNLYQLEGNKRITCRNGQWSEPPKCLHPCVISREIMENYNIALRWTAKQKLYSRTGESVEFVCKRGYRLSSRSHTLRTTCWDGKLEYPTCAKRENLYFQG
notes: expressed in HEK293 cells; also called EWEuH; fusion EWEµH; not shown: His tag implied by HisTrap purification and capture on anti-penta his biosensors
[4]
  fold stronger binding than EWE-hC3Nb1: ~10 fold
